Patent US20230322953A1 (HARBOUR BIOMED SHANGHAI, published 2023)
Like-named read-outs stand apart in the source and are kept apart here. One block for each binder: values may come before it.

What was measured:
[1] = target: T1, human BCMA on NCI-H929 cells (ATCC, CRL-9068) (human, UniProt Q02223 1-184); assay: cell-based or functional assay
T1 sequence (looked up): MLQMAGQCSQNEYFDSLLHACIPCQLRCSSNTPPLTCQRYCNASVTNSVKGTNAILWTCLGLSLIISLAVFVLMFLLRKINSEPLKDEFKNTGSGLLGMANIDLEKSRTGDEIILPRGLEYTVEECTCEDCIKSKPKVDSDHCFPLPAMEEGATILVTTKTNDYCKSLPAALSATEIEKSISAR

[2] = target: T1, human BCMA on NCI-H929 cells (ATCC, …); assay: cell-based or functional assay; remark: listed apart in the source
[3] = target: T2, biotinylated human BCMA-Fc, Avitag recombinant protein (ACRO Biosystems, #BC7-H82F0) (human, UniProt Q02223 1-54, biotinylated (Avitag)); assay: BLI (Octet Red96e), biotinylated BCMA-Fc on SA sensor, 1:1 global fitting;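 also: Anti-BCMA antibodies analysed as binding partners of the captured BCMA antigen, with reference signals removed by double referencing before kinetic fitting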
T2 construct: extracellular domain; Bought protein; also called huBCMA.Fc; recombinant human BCMA-ECD-Fc
T2 sequence (looked up): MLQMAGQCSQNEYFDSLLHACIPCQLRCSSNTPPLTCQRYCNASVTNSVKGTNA

[4] = target: T1, human BCMA on NCI-H929 cells (ATCC, …); assay: cell-based or functional assay; remark: listed apart in the source
[5] = target: T3, human CD3 (TCR/CD3 complex) on human T cells (human, UniProt P07766 23-207); assay: flow cytometry (FACS) on human T cells, Experiment 3
T3 construct: whole, on cells
T3 sequence (P07766 23-207, one chain of several): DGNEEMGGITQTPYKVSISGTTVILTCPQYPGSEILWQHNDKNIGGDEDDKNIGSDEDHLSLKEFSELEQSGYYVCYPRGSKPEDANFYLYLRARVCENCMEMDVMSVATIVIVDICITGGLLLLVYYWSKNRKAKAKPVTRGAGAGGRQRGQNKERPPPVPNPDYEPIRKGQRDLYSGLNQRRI

[6] = target: T1, human BCMA on NCI-H929 cells (ATCC, …); assay: cell-based or functional assay; remark: listed apart in the source
[7] = target: T4, cynomolgus monkey BCMA (ACRO Biosystems, #BCA-C82F4) (cynomolgus monkey, UniProt A0A2K5UD97 1-53); assay: BLI (Octet Red96e), cyBCMA.Fc
T4 construct: Bought protein; also called cyBCMA.Fc

[8] = target: T5, cynomolgus monkey CD3 (TCR/CD3 complex) on cynomolgus monkey T cells (cynomolgus monkey); assay: flow cytometry (FACS) on cynomolgus monkey T cells
T5 construct: whole, on cells
T5 sequence (Q95LI5 22-198, one chain of several): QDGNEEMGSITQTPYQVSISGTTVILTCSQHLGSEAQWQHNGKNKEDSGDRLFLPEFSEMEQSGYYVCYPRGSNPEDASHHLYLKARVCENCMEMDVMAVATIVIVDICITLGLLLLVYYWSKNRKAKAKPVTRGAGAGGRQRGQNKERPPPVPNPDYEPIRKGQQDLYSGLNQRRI

[9] = target: T6, cynomolgus monkey BCMA on cells (HEK293T/cyno BCMA) (cynomolgus monkey, UniProt A0A2K5UD97 1-183); assay: FACS, HEK293T/cyno BCMA cells
T6 construct: whole, on cells
T6 sequence (A0A2K5UD97 entry or part of it): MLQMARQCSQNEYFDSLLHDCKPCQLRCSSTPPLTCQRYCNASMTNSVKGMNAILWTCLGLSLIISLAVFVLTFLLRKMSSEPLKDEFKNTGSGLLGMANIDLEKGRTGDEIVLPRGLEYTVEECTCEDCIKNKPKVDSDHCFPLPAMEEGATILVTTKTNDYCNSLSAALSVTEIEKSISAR

[10] = target: T7, cynomolgus monkey BCMA (ACRO Biosystems, #BCA-C82F4) (cynomolgus monkey, UniProt A0A2K5UD97 1-53); assay: BLI, Octet Red96e
T7 construct: bought; also called cyBCMA.Fc

IFN-γ release, EC50 [1]: 0.483 nM
IFN-γ release, Maximum [1]: 1020 pg/mL
IL-2 release, EC50 [1]: 2.27 nM
IL-2 release, Maximum [1]: 21.5 pg/mL
IL-6 release, EC50 [1]: 13.1 nM
IL-6 release, Maximum [1]: 245 pg/mL
IL-10 release, EC50 [1]: 0.861 nM
IL-10 release, Maximum [1]: 583 pg/mL
TNF-α release, EC50 [1]: 0.464 nM
TNF-α release, Maximum [1]: 608 pg/mL
IFN-γ release, EC50 [2]: 0.261 nM
IFN-γ release, Maximum [2]: 658 pg/mL
IL-2 release, EC50 [2]: 0.312 nM
IL-2 release, Maximum [2]: 25.8 pg/mL
IL-6 release, EC50 [2]: 0.341 nM
IL-6 release, Maximum [2]: 71.4 pg/mL
IL-10 release, EC50 [2]: 0.335 nM
IL-10 release, Maximum [2]: 190 pg/mL
TNF-α release, EC50 [2]: 0.224 nM
TNF-α release, Maximum [2]: 1020 pg/mL
Kd [3]: 0.0452 nM
koff [3]: 2.46e-05 s⁻¹
kon [3]: 545000 M⁻¹ s⁻¹
Maximum MFI [5]: 6850 MFI
binding result [7]: no binding
Maximum MFI [8]: 1110 MFI
B1: PR002199, BCMA × CD3 bispecific antibody derived from WO2019133761A1 (bispecific antibody, human IgG1, kappa, L234A L235A)
chain 1: not shown
chain 2: EVQLVESGGGLVQPGRSLRLSCAASGFTFDDYAMHWVRQAPGKGLEWVSGISWNSGSIGYADSVKGRFTISRDNAKNSLYLQMNSLRAEDTALYYCAKDSRGYGDYRLGGAYWGQGTLVTVSSASTKGPSVFPLAPSSKSTSGGTAALGCLVKDYFPEPVTVSWNSGALTSGVHTFPAVLQSSGLYSLSSVVTVPSSSLGTQTYICNVNHKPSNTKVDKKVEPKSCDKTHTCPPCPAPEAAGGPSVFLFPPKPKDTLMISRTPEVTCVVVDVSHEDPEVKFNWYVDGVEVHNAKTKPREEQYNSTYRVVSVLTVLHQDWLNGKEYKCKVSNKALGAPIEKTISKAKGQPREPQVYTLPPCREEMTKNQVSLWCLVKGFYPSDIAVEWESNGQPENNYKTTPPVLDSDGSFFLYSKLTVDKSRWQQGNVFSCSVMHEALHNHYTQKSLSLSPGK
chain 3: EVQLLESGGGLVQPGGSLRLSCAASGFTVSSYGMSWVRQAPGKGPEWVSGIRGSDGSTYYADSVKGRFTISRDNSKNTLYLQMNSLRAEDTAVYYCAKQGENDGPFDHRGQGTLVTVSSGGGGSEVQLLESGGGLVQPGGSLRLSCAASGFTVSSYGMSWVRQAPGKGPEWVSGIRGSDGSTYYADSVKGRFTISRDNSKNTLYLQMNSLRAEDTAVYYCAKQGENDGPFDHRGQGTLVTVSSASEPKSSDKTHTCPPCPAPEAAGGPSVFLFPPKPKDTLMISRTPEVTCVVVDVSHEDPEVKFNWYVDGVEVHNAKTKPREEQYNSTYRVVSVLTVLHQDWLNGKEYKCKVSNKALGAPIEKTISKAKGQPREPQVCTLPPSREEMTKNQVSLSCAVKGFYPSDIAVEWESNGQPENNYKTTPPVLDSDGSFFLVSKLTVDKSRWQQGNVFSCSVMHEALHNHYTQKSLSLSPGK
notes: Three polypeptide chains; also called Positive control 2
NCI-H929 killing, EC50 [1]: 0.16 nM
NCI-H929 killing, Maximum killing rate % [1]: 61.2%
NCI-H929 killing, EC50 [2]: 0.115 nM
NCI-H929 killing, Maximum killing rate % [2]: 62%
Killing EC50 (nM), PBMC + NCI-H929, + 62.5 ng/ml sBCMA [4]: 0.8 nM
Killing EC50 (nM), PBMC + NCI-H929, + 125 ng/ml sBCMA [4]: 1 nM
Killing EC50 (nM), PBMC + NCI-H929, + 250 ng/ml sBCMA [4]: 3.5 nM
Killing EC50 (nM), PBMC + NCI-H929, + 500 ng/ml sBCMA [4]: 7.7 nM
Killing EC50 (nM), PBMC + NCI-H929, no sBCMA [4]: 0.2 nM
Killing EC50 (nM), PBMC + NCI-H929, + 10 ng/mL sBAFF [6]: 0.063 nM
Killing EC50 (nM), PBMC + NCI-H929, + 10 ng/ml sAPRIL [6]: 0.096 nM
Killing EC50 (nM), PBMC + NCI-H929, + 100 ng/mL sBAFF [6]: 0.076 nM
Killing EC50 (nM), PBMC + NCI-H929, + 100 ng/ml sAPRIL [6]: 0.253 nM
Killing EC50 (nM), PBMC + NCI-H929, no soluble ligand [6]: 0.103 nM

binding result [9]: no binding
binding result [10]: no binding
B2: PR002199, BCMA×CD3 bispecific antibody derived from WO2019133761A1 (bispecific antibody, human IgG1, kappa, L234A L235A)
chain 1: not shown
chain 2: B1 chain 2
chain 3: B1 chain 3
notes: also called positive control 2
